Data reported in paper PMC12599920.

Biological target: Mushroom body defect coiled-coil domain (Mud^CC)
Assay: saturation binding (MBP pull-down, gel quantification)
Conditions: read off a plot
[1] = right plot, 20 µM MudCC, parent: est. 130

Substance: MBP:Hts (110-310), CThelix truncation of the Hts aldolase domain (from UniProt Q02645) Y159A; L162A; E165A
- response (left plot, 5 µM MudCC, parent: est. 83): 1 AU
- response (left plot, 20 µM MudCC, parent: est. 110): 5 AU

Substance: 3OCR_ΔCT, P. syringae aldolase enzyme with the CThelix deleted FLEaaa
- response (10 µM MudCC, parent: est. 110): 27 AU
- response (20 µM MudCC, parent: est. 140): 46 AU
- response (40 µM MudCC, parent: est. 140): 57 AU

Substance: MBP:Hts (110-401), full-length Hts aldolase domain (from UniProt Q02645) Q177A; V181A
- response (5 µM MudCC, parent: est. 98): 110 AU
- response (20 µM MudCC, parent: est. 140): 150 AU

Substance: MBP:Hts (110-401), full-length Hts aldolase domain (from UniProt Q02645) D310A
- response (5 µM MudCC, parent: est. 98): 130 AU
- response (20 µM MudCC, parent: est. 140): 150 AU

Substance: MBP:Hts (110-310), CThelix truncation of the Hts aldolase domain (from UniProt Q02645) H164A; T167A
- response (left plot, 5 µM MudCC, parent: est. 110): 100 AU
- response (left plot, 20 µM MudCC, parent: est. 130): 120 AU

Substance: MBP:Hts (110-401), full-length Hts aldolase domain (from UniProt Q02645) Q151A; E152A
- response (5 µM MudCC, parent: est. 98): 93 AU
- response (20 µM MudCC, parent: est. 140): 150 AU

Substance: MBP:Hts (110-401), full-length Hts aldolase domain (from UniProt Q02645) Y159A; L162A; E165A
- response (left plot, 5 µM MudCC, parent: est. 120): 7 AU
- response (left plot, 20 µM MudCC, parent: est. 140): 24 AU

Substance: MBP:Hts (110-401), full-length Hts aldolase domain (from UniProt Q02645) R205A; D207A
- response (5 µM MudCC, parent: est. 98): 120 AU
- response (20 µM MudCC, parent: est. 140): 140 AU

Substance: MBP:Hts (110-310), CThelix truncation of the Hts aldolase domain (from UniProt Q02645) R128A
- response (right plot, 5 µM MudCC, parent: est. 99): 120 AU
- response [1]: 140 AU

Substance: MBP:Hts (110-310), CThelix truncation of the Hts aldolase domain (from UniProt Q02645) L139A
- response (right plot, 5 µM MudCC, parent: est. 110): 38 AU
- response (right plot, 10 µM MudCC, parent: est. 120): 86 AU
- response [1]: 140 AU
